# Measured values taken from patent US20160151452A1.
# Experiments:
# EphB2-Fc [1] = test: SPR, 100 nM analyte over immobilised EphB2-Fc
# [2] = biological target: EphB2 transiently expressed in DU145 cells; test: cell-based or functional assay
# EphB2-Fc [3] = test: SPR competition on immobilised EphB2-Fc; competitor ephrinB2-Fc 246 nM
# EphB2-Fc [4] = test: SPR competition on immobilised EphB2-Fc; competitor ephrinB2-Fc 246 nM preincubated with 0-1020 nM GST-Azu 88-113
# EphB2-Fc [5] = test: SPR titration (0.05-100 nM) on immobilised EphB2-Fc, Langmuir 1:1 fit
# EphB2-Fc [6] = test: SPR, azurin immobilised on CM5 chip, 100 nM Eph-Fc injected
# EphA6-Fc = test: as above
# EphB2-Fc [7] = test: SPR competition on immobilised EphB2-Fc; competitor ephrinB2-Fc 246 nM preincubated with 0-1020 nM azurin
# EphB2-Fc [8] = test: SPR titration on immobilised EphB2-Fc, Langmuir 1:1 fit
# Sequence of azurin from Pseudomonas aeruginosa (P00282 21-148 limits assumed): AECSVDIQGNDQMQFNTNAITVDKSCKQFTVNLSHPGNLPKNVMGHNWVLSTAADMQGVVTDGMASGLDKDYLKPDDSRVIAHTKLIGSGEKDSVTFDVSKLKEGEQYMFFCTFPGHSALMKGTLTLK
# Sequence of ephrinB2-Fc (Fc fusion) (P52800 29-232): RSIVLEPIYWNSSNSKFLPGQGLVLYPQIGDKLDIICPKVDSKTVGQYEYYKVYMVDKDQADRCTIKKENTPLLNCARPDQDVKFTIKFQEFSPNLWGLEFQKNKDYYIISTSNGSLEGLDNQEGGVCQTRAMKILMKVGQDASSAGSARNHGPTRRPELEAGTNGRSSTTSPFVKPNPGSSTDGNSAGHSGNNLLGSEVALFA
# Sequence of GST-Azu 88-113 (P08515 1-218, tags or fused parts left off): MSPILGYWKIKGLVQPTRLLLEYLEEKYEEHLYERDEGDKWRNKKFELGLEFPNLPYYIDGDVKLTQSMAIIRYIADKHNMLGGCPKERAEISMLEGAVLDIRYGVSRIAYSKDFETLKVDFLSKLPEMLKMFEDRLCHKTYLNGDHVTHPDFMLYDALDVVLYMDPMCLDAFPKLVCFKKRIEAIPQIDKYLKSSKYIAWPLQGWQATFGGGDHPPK
# Sequence of EphB2-Fc (P54763 19-543): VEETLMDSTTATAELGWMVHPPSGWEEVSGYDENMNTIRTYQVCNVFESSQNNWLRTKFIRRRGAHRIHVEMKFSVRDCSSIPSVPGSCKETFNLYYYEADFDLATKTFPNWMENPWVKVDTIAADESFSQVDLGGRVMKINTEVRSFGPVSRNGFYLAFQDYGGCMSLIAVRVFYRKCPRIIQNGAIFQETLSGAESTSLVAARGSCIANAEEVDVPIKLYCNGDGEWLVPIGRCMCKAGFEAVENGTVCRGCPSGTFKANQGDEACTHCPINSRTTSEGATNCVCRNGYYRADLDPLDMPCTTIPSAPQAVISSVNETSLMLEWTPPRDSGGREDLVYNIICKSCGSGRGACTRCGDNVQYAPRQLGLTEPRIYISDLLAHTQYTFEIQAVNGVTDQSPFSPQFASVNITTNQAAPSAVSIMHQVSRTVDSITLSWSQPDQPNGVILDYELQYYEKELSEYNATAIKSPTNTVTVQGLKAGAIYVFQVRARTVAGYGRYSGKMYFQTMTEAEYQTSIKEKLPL
# Sequence of glutathione S-transferase (GST) (P08515 whole entry): as the sequence (P08515 1-218, tags or fused parts left off) above
# Sequence of EphA6-Fc (Q9UF33 whole entry): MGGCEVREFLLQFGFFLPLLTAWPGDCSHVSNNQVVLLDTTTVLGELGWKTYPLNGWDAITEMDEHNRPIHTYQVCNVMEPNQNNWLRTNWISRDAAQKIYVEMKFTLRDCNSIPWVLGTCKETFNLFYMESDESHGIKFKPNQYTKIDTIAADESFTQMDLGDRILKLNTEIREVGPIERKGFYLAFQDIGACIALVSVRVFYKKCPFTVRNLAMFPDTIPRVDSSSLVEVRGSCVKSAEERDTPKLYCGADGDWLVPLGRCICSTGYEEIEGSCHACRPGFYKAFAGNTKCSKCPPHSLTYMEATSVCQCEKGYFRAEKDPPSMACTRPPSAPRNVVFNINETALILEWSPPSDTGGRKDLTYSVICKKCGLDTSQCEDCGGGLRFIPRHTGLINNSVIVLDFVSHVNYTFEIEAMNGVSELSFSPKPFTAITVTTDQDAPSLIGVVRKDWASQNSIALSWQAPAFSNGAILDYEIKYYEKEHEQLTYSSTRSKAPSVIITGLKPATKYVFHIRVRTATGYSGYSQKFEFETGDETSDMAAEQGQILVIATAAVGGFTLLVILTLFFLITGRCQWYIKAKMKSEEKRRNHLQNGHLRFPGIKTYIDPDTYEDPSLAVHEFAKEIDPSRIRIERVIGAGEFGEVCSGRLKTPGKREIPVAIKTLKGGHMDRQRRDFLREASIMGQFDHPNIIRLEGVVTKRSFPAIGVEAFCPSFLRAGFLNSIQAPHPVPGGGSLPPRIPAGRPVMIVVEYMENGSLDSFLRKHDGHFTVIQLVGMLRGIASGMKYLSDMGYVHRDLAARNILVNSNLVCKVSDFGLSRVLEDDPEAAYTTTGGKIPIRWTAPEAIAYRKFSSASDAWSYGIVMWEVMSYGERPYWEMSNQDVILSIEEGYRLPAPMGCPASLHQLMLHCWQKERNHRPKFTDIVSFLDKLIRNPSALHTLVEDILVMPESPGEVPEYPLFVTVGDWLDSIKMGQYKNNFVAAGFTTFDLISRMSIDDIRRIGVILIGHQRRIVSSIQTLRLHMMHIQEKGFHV
# Sequence of GST-Azu 36-89 (P08515 1-218, tags or fused parts left off): as the sequence (P08515 1-218, tags or fused parts left off) above
Substance,Req in RU (EphB2-Fc [1]),level at which the inhibition levels off (EphB2-Fc [3]),Kd (EphB2-Fc [5]),Kd (EphB2-Fc [8]),also measured
GST-Azu 36-89 (from UniProt P08515 1-218),57 RU,–,–,–,–
GST-Azu 88-113 (from UniProt P08515 1-218),–,40 to 50%,–,–,decrease in phosphotyrosine level on cotreatment with ephrinB2 (lane 11 against lane 8) [2]: 21%; decrease in phosphotyrosine level on cotreatment with ephrinB2 (lane 12 against lane 9) [2]: 42%; decrease in phosphotyrosine level on cotreatment with ephrinB2 (lane 13 against lane 10) [2]: 45%; reduction of total protein binding to the surface (EphB2-Fc [4]): < 60%
azurin from Pseudomonas aeruginosa (from UniProt P00282 21-148),427 RU,40 to 50%,6 nM,–,lower level of tyrosine phosphorylation with azurin plus ephrinB2 than with ephrinB2 alone [2]: 30 to 40%; Req (saturating resonance) (EphB2-Fc [6]): 1250 RU; Req (saturating resonance) (EphA6-Fc): 1200 RU; reduction of total protein binding to the surface (EphB2-Fc [7]): < 60%
ephrinB2-Fc (Fc fusion),159 RU,–,30 nM,30 nM,–
glutathione S-transferase (GST) (from UniProt P08515 1-218) (enzyme),14 RU,–,–,> 160 nM,–
